Data set [1] deals with COS-7 cells. The data set is described as follows: Comparison of luminescence intensity of ALucs (Example 1-2). The conditions noted are these: COS-7 cultured overnight, Promega assay solution, LAS-4000. The data set is classed as cell-based, African green monkey. An excerpt: The artificial luciferase (ALuc) genes synthesized by the above process were subcloned into mammalian cell expression vectors (pcDNA3.1 (+)). Each expression vector was transfected with African green monkey kidney-derived COS-7 cells, and the luminescence intensity, luminescence stability, and red-shifted degree of artificial luciferases (ALucs) were compared (FIGS. 2 to 5).
First, the luminescence intensity of artificial luciferases (ALucs) was compared (FIG. 2). For the comparison, COS-7 cells containing a vector encoding each luciferase were cultured overnight, and then the relative luminescence intensity was measured by using an assay solution, which is a mixture of a cell lysis solution and a substrate, produced by Promega, and a luminescence image analyzer (LAS-4000).

For data set [2], the system named is COS-7 cells. Briefly: Luminescence stability of ALucs after substrate injection (Example 1-3). The data set is classed as cell-based, African green monkey. The conditions noted are these: Promega lysis and reaction solution. As for the experimental part:
The luminescence stability of the artificial luciferases (ALucs) of the present invention was examined in various respects (FIG. 3). COS-7 cells containing each luciferase gene were cultured for 9 hours, and treated with a cell lysis solution produced by Promega for 20 minutes. Temporal changes in luciferase luminescence intensity after the introduction of a substrate-containing reaction solution produced by Promega were observed every five minutes (FIG. 3A).
This experiment was expanded to artificial luciferases ALuc16 to ALuc25 (FIG. 3BC).

A short description of data set [3]: Heat resistance of ALucs in lysate (Example 1-4). The data set is classed as physicochemical. As to conditions: for change of luminescence intensity by heating: 80° C. for 10 minutes. Here is the method:
The heat resistance and degree of extracellular secretion of artificial luciferases of the present invention were measured (FIG. 4). First, to measure heat resistance, COS-7 cells containing each luciferase were lysed in cell lysis solutions produced by Promega to prepare lysates. Subsequently, same samples were allowed to stand at room temperature or heated at 80° C. for 10 minutes, and changes in luminescence intensity were compared by using a (substrate-containing) reaction solution produced by Promega.

The test system of data set [4] is COS-7 cells. The data set is described as follows: Degree of extracellular secretion of ALucs (Example 1-4). It counts as cell-based, African green monkey. The conditions noted are these: luminescence intensity of the medium, overnight culture. As for the experimental part: Further, each luciferase (ALuc) was introduced into COS-7 cells, culturing was performed overnight, and then the amount of each luciferase (ALuc) secreted from the cells was measured based on the luminescence intensity of the medium (FIG. 4B).

A short description of data set [5]: Prolonged activity stability of ALucs secreted in medium (Example 1-19). The data set is classed as physicochemical. The conditions noted are these: Day 0 to Day 25. Here is the method:
The prolonged activity stability of the artificial luciferases (ALucs) developed in the present invention was examined. First, a plasmid expressing each artificial luciferase (ALuc16, ALuc22, ALuc23, ALuc24, ALuc25, and ALuc30) (in the figure, each is referred to as A16, A22, A23, A24, A25, and A30) was introduced into COS-7 cells, and then culturing was continued for 24 hours. By the culturing, each artificial luciferase was secreted into the medium. The artificial luciferase secreted in the medium was collected, and a difference in enzymatic activity was measured under the same conditions in the following manner. On the first day (Day 0), 50 μL of assay solution (containing native coelenterazine, produced by Promega) was added to 5 μL of each medium, and the luminescence value (enzymatic activity) was measured using an LAS-4000 (produced by FujiFilm). In the same manner, the luminescence value on Day 8, Day 16, and Day 25 was compared with the luminescence value on Day 0 (FIG. 19 (A)).

Data set [6] concerns COS-7 cells. The data set is described as follows: Enzymatic activity confirmation of ALuc (section 3-1, 3-2). The data set is classed as cell-based, African monkey. As to conditions: vs conventional copepod luciferases. Here is the method:
First, using a known lipid reagent for gene introduction, an expression vector encoding ALuc is introduced into African monkey-derived COS-7 cells; as a control, an expression vector having a known GLuc without any mutation into the cells is also introduced in the same manner. At a predetermined time (from 10 to 20 hours, for example, 16 hours) after the introduction of the vector, a cell lysate is prepared using a known lysis reagent.
Thereafter, the cell lysate is mixed with a known substrate solution containing coelenterazine, and its color intensity, temporal stability in luminescence, etc., are measured.
The luminescence intensity may be found by measuring the intensity at a specific wavelength using a known luminescence spectrophotometer after addition of a known substrate. By performing the measurement every minute, the temporal stability in luminescence can be evaluated. To measure a shift to a longer wavelength, scanning of the entire wavelength is necessary.

Data set [7] deals with COS-7 cells. Briefly: Luminescence of ALuc25 to ALuc32 in lysate and medium (Example 1-18). The data set is classed as cell-based. The conditions noted are these: 20 hours after plasmid introduction. Here is the method: After the insertion of a gene encoding an enzyme sequence as mentioned above into a mammalian expression vector (pcDNA3.1 (+)), each plasmid was introduced into COS-7 cells. By the transformation of these cells, each luciferase was expressed, and some of the luciferase was secreted out of the cells and some of the luciferase retained in the cells. 20 hours after the plasmid introduction, media of the cells were sampled, and the remaining cells were lysed with a lysis buffer (lysate preparation). Immediately after 50 μL of assay solution (containing a substrate) was simultaneously added to each prepared medium (5 μL) or lysate (5 μL), the luminescence value was measured using a luminescence analyzer (LAS-4000; FujiFilm) (n=3) (FIG. 18).

Data set [8] is described as follows: Temporal change in luminescence after substrate injection, medium 25 days after expression (Example 1-19). The data set is classed as biochemical. The conditions noted are these: for temporal change of luminescence after substrate injection: medium 25 days after expression. Here is the method: 50 μL of an assay solution (containing native coelenterazine, produced by Promega) was added to 5 μL of each medium 25 days after the expression, and the luminescence value (enzymatic activity) was measured using an LAS-4000 (produced by FujiFilm).

Data set [9] relates to COS-7 cells. Briefly: Luminescence characteristics of tag-containing ALucs (Example 1-22). It counts as cell-based. The conditions noted are these: medium two days after gene transfer. As for the experimental part: To compare the relative luminescence intensity of these luciferases, the following experiment was conducted. First, a gene encoding each luciferase was subcloned into pcDNA3.1 (+), which is a eukaryotic expression vector, and each vector was introduced into COS-7 cells. Two days after gene transfer, the relative luminescence intensity of luciferase secreted into each medium was compared using a luminescence reagent produced by Promega.

Positions count from the first letter of the chain named. Entries after “also recorded” stand apart in the source; their conditions may differ.

B1: ALuc22: artificial luciferase, SEQ ID NO: 15 (protein)
chain: MMGVKLIFAVLCVAVAQANATINENFEDIDLVAIGGSFADLETDLFTIVEDMNVISRDTDVDANRGGRGRRGKLPGKKLPLEVLKELEANAQKAGCTRGCLICLSHIKCTAKMKKWLPGRCESWEGDKETGQGGIGEAIVDIPEIPGFKDLEPMEQFIAQVDLCVDCTTGCLKGLANVKCSDLLKKWLPSRCATFASKIQAQVDKIKGAGGS
modifications: Synthetic ALuc22
In the case of B1, the “luminescence intensity higher than that of conventional GLuc, Renilla luciferase and MpLuc4” value (from here on “luminescence intensity higher than that”) in the data set on COS-7 cells [1] is reported as “about 50 folds”. For the same molecule, in the data set with COS-7 cells [2], the “luminescence intensity (initial)” value is “advantageous initial luminescence intensity” and the “luminescence stability / sustainability after substrate injection” value is on record as “decreased to about half of the original luminescence intensity after 6 minutes”. Besides, in [3], the “change of luminescence intensity by heating” value (“change … by heating” below) is recorded as “significantly decreased”. Besides, the “reduction of luminescence intensity by heating” value in [3] (80° C. for 10 minutes vs room temperature) is recorded as “about 40%”. Moreover, the extracellular secretion result with COS-7 cells [4] is “low extracellular secretion”. In data set [5], the “prolonged enzymatic activity stability” value is given as “significant decrease in enzymatic activity”. Besides, the “luminescence stability (general statement)” value with COS-7 cells [6] is “remarkably stable luminescence signals”.

B2: ALuc25: artificial luciferase, SEQ ID NO: 17 (protein)
chain: B1 chain with D150E, E152A, V165A, D182A, T194G, S197D, K205T
modifications: Synthetic ALuc25
As for B2, in the data set on COS-7 cells [1], the “luminescence intensity higher than that” value is recorded as “about 50 folds”. Besides, the “luminescence intensity (initial)” value in the data set on COS-7 cells [2] is “advantageous initial luminescence intensity”. For the same molecule, in data set [3], the “change … by heating” value is “a remarkable reduction in luminescence intensity that may be due to heating was not observed”. Besides, the extracellular secretion entry in the data set on COS-7 cells [4] is listed as “low extracellular secretion”. In the data set with COS-7 cells [7], the “luminescence value from lysate” value was “extremely higher than those of conventional GLuc and MpLuc4”. Moreover, the “prolonged enzymatic activity stability” value in data set [5] is on record as “maintained stable enzymatic activity until Day 25”. Further, the “luminescence stability (general statement)” value with COS-7 cells [6] is recorded as “remarkably stable luminescence signals”.

B3: ALuc24: artificial luciferase, SEQ ID NO: 27 (protein)
chain: MMGIKVLFALICFALVQANPTENKDDIDIVGVEGKFGTTDLETDLFTIVEDMNVISRDTDVDANRADRGRRGKLPGKKLPLEVLKELEANAQKAGCTRGCLICLSHIKCTAKMKKWLPGRCESWEGDKETGQGGIGEAIVDIPEIPGFKNMAPMEQFIAQVDLCADCTTGCLKGLANVKCSNLLKKWLPSRCKGFANKIQAEVDTIKGLGGS
modifications: Synthetic ALuc24
Consider B3, for which, in the data set on COS-7 cells [2], the “luminescence intensity (initial)” value is “slightly low in luminescence intensity; also recorded: relatively low luminescence intensity” and the “luminescence stability / sustainability after substrate injection” value is on record as “excellent in luminescence stability; also recorded: extremely higher luminescence sustainability than other artificial luciferases”. Also, in data set [5], the “prolonged enzymatic activity stability” value is on record as “maintained stable enzymatic activity until Day 25”. Also, the “temporal change of luminescence after substrate injection” value in data set [8] is given as “abrupt increase in luminescence value after 6 minutes”. For the same molecule, the “luminescence stability (general statement)” value in the data set on COS-7 cells [6] is given as “remarkably stable luminescence signals”.

B4: ALuc23: artificial luciferase, SEQ ID NO: 16 (protein)
chain: B3 chain with N150E, M151L, N182A, K193A, N197D, E202Q, L209A
modifications: Synthetic ALuc23
Consider B4, for which the “luminescence intensity higher than that” value in the data set on COS-7 cells [1] is recorded as “about 50 folds”. Also, the “luminescence intensity (initial)” value in the data set with COS-7 cells [2] is reported as “advantageous initial luminescence intensity”. Also, the “change … by heating” value in data set [3] is “a remarkable reduction in luminescence intensity that may be due to heating was not observed”. In the data set on COS-7 cells [4], the extracellular secretion entry was “relatively high extracellular secretion”. In addition, the “time of maximum luminescence value after infusion of coelenterazine” value in [8] (after long-term conservation (25 days)) is 12 min. Moreover, the “temporal change of luminescence after substrate injection” value in [8] is listed as “several times higher”. In the data set with COS-7 cells [6], the “luminescence stability (general statement)” value was “remarkably stable luminescence signals”.

B5: ALuc31: artificial luciferase containing a His tag, SEQ ID NO: 33 (protein)
chain: MMGIKVLFALICFALVQANHHHHHHHHDIVGVEGKFGTTDLETDLFTIVEDMNVISRDTDVDANRADRGRRGELPGKKLPLEVLKELEANAQKAGCTRGCLICLSHIKCTAKMKKWLPGRCESWEGDKETGQGGIGEAIVDIPEIPGFKELAPMEQFIAQVDLCADCTTGCLKGLANVKCSALLKKWLPSRCAGFADKIQAQVDTIKGAGGS
modifications: His tag; Synthetic ALuc31
For B5, in the data set on COS-7 cells [7], the “luminescence from cell medium” value was “strong bioluminescence”; the “luminescence value from lysate” value was “extremely higher than those of conventional GLuc and MpLuc4”. Also, the “luminescence stability (general statement)” value in the data set with COS-7 cells [6] is on record as “remarkably stable luminescence signals”.

B6: ALuc32: artificial luciferase containing a c-Myc-tag, SEQ ID NO: 34 (protein)
chain: B5 chain with H20E, H21Q, H22K, H23L, H24I, H25S, H26E, H27E, I29L, E73K
modifications: c-Myc tag; Synthetic ALuc32
Turning to B6, the relative luminescence intensity result with COS-7 cells [9] is “relatively poor luminescence intensity”. The “luminescence stability (general statement)” value with COS-7 cells [6] is given as “remarkably stable luminescence signals”.
